Results reported in patent publication US6803203B1, “DNA-PK assay” (Brookhaven Science Associates, priority 1993, dated 2004).
“Also recorded” adds a separate entry of the source. Residues, ends and D or L forms follow the SMILES beside them. No end group written: not given here.

Experiments:
Type in all cases: biochemical
DNA-PK [1] = biological target: T1, DNA-PK (Homo sapiens, UniProt P78527); assay: Phosphorylation of synthetic peptides by purified DNA-PK (phosphocellulose paper binding method); conditions: for PO4 incorp.: each peptide at 200 μM, calf thymus DNA 10 μg/ml, 30° C.
T1 construct: DNA-PK was purified from HeLa cells; endogenous in cells; host or cells: HeLa S3 cells; the endogenous enzyme was purified in house by chromatography
Protocol: Phenylmethylsulfonyl fluoride was added to the S10 (10,000×g) supernatant as a powder to 0.5 mM. DNA-PK activity was found in the 100,000×g (ribosomal) pellet. DNA-PK preparations typically were made from 200 ml of S10 supernatant that had been derived from approximately 10^10 cells. All steps were performed at 4° C. unless indicated otherwise.
Phosphorylation reactions were performed in a 20- or 40-μl final volume as previously described by Chen, et al., J. Virol., 10:5131-5140 (1991) and Lees-Miller, et al., Mol. Cell. […] In particular, in addition to synthetic peptide substrates or protein substrates, the assays contained 50 mM HEPES (pH 7.5), 100 mM KCl, 10 mM MgCl2, 2 mM EGTA, 0.1 mM EDTA and 0.125 mM ATP containing [^32P]ATP at 0.2 mCi/ml. […] Assays were started by adding 1 μl of kinase sample. Incubations were at 30° C. for 7 min.
For determinations of kinetic constants, the ATP concentration was 0.5 mM. When present, hsp90 was included at 0.5 mg/ml. Assay mixtures were preincubated at 30° C. for 2 min before addition of 0.1 to 0.5 μg (protein) of the DNA-PK preparation.
In particular, kinase reactions were stopped by adding an equal volume of 30% acetic acid, and portions of the acidified reaction were spotted on 2- by 2-cm squares of P-81 paper (Whatman, Inc., Clifton, N.J.). […] The P-81 squares were then transferred to scintillation vials containing 3.5 ml of water, and bound radioactivity was determined from the Cerenkov radiation. Enzyme activity was calculated from triplicate determinations, using the specific activity of the ATP and the protein concentration, which was determined by the Bio-Rad dye-binding assay (Bio-Rad (Bradford) Protein Assay Kit 1, Cat. No. 500-001, Bio-Rad Laboratories, Hercules, Calif.), using bovine serum albumin as the standard. […] The kinetic constants, Km and Vmax for each peptide sequence were calculated from plots of 1/[S] versus 1/V, the values reported are averages of at least two independent determinations.

DNA-PK [2] = biological target: T1, DNA-PK; assay: Poorer substrate peptides added to (SEQ ID NO: 8) phosphorylation assays; conditions: peptide up to 250 μM; (SEQ ID NO: 8) at 100 μM
DNA-PK [3] = biological target: T1, DNA-PK; assay: Conditions that result in 50% inhibition of DNA-PK activity; conditions: for 50% Inhibition / IC50: inhibition of DNA-PK activity in vitro
Protocol: Experiments were performed to determine optimal DNA-PK assay conditions. It was determined that DNA-PK is active over a broad pH range and the most common buffers with the exception of phosphate buffers. A summary of assay conditions that optimize DNA-PK activity in vitro is found in Table 4 along with a summary of conditions that result in 50% inhibition of DNA-PK activity.
The methods used to obtain results in the second section (Inhibitor section) of Table 4 are illustrative of methods that are applicable to identifying substances that alter the activity of DNA-PK.

DNA-PK [4] = biological target: T1, DNA-PK; assay: Phosphorylation of recombinant protein substrates by purified DNA-PK (SDS-PAGE, phosphorimage); conditions: 5 μg/ml calf thymus DNA compared to no addition of DNA; 30 minutes at 30° C.
Protocol: The recombinant protein substrates, a total of six, (at approximately 0.1 mg/ml final concentration) were separately mixed with hsp90 in a phosphorylation reaction with purified DNA-PK (0.6 pg, 0.02 units/assay) without (−) or with (+) 5 μg/ml calf thymus DNA, in the presence of ^32P-ATP for 30 minutes at 30° C. as described by Lees-Miller, et al., Mol. Cell. Biol., 12:5041-5049 (1992). The phosphorylation reactions were stopped with SDS sample buffer and analyzed with SDS-PAGE. The gel was fixed, stained with Coomassie brilliant blue, dried and developed by autoradiographic procedures. The results of which can be seen in FIG. 9.

DNA-PK [5] = biological target: T1, DNA-PK; assay: Identification of phosphorylated residues (sequence analysis, S-ethylcysteine conversion); conditions: p53 residue numbering
Protocol: To determine which of these were phosphorylated, after incubation with DNA-PK, radiochemical sequence analysis was performed by using a Beckman 890M spinning-cup sequencer (Beckman Instruments, Palo Alto, Calif.) as described by Lees-Miller, et al., J. Biol. Chem., 264:17275-17280 (1989). The peptide was isolated by reverse-phase HPLC, peptidylphosphoserine was converted to S-ethylcysteine, and the position of phenylthiohydantoin (PTH)-S-ethylcysteine was determined by chemical microsequence analysis using an Automated Protein/Peptide sequencer (Applied Biosystems, Foster City, Calif.) and a 120 PTH-Amino Acid Analyzer (Applied Biosystems, Foster City, Calif.) as described by Lees-Miller, et al., J. Biol. Chem., 264:17275-17280 (1989).
A peptide corresponding to mouse p53 residues Met^4-Pro^31, (SEQ ID NO: 2), was also examined (See Table 1). Serine 7 of mouse p53 is at the position equivalent to proline 4 of human p53, and the glutamine at position 8 of mouse p53 is conserved among mammals as reported by Soussi, et al., Oncogene, 5:945-952 (1990). After phosphorylation of (SEQ ID NO: 2) the peptide was digested with endoproteinase Glu-C, and the resulting fragments were separated by reverse-phase HPLC. […] Each peptide was treated to convert phosphoserine to S-ethylcysteine; then they were resequenced.

Row | PO4 incorp. (DNA-PK [1]) | Molecule | substrate activity for DNA-PK (in words) (DNA-PK [1]) | inhibition of phosphorylation of (SEQ ID NO: 8) (DNA-PK [2]) | other results
1 | 0.4 pmol/min/μg of DNA-PK | EPPLSEEAFADLWKK [SEQ ID NO: 32] | effectively eliminated the ability of the sequence to act as a DNA-PK substrate | None of these peptides significantly inhibited the phosphorylation | –
2 | – | Heparin [reference compound] | – | – | effect on DNA-PK activity (in words) (DNA-PK [3]): inhibited; 50% Inhibition (DNA-PK [3]): 1 µg/mL
3 | 12 pmol/min/μg of DNA-PK | Glu Pro Pro Leu Ser Gln Glu Thr Phe Ser Asp—Lys Lys (EPPLSQETFSDKK; Human p53 residues 11-21; listed as Homo sapiens) [SEQ ID NO: 10] | – | None of these peptides significantly inhibited the phosphorylation | rate of phosphorylation relative to control (SEQ ID NO: 8) (DNA-PK [1]): approximately 10%
4 | – | PESEQAFADLWKK [SEQ ID NO: 23] | not phosphorylated by DNA-PK | – | –
5 | – | hsp90: human heat shock protein hsp90, a known DNA-PK substrate [reference compound] | – | – | increase in phosphate incorporation by addition of double stranded DNA (DNA-PK [4]): 20 fold
6 | – | MEESQSDISLELPLSQETFSGLWKLLPP [SEQ ID NO: 2] | – | – | site phosphorylated by DNA-PK (DNA-PK [5]): Ser^7 and Ser^18
7 | 0.1 pmol/min/μg of DNA-PK | EPPLSNEAFADLWKK [SEQ ID NO: 33] | eliminated the ability of the sequence to act as a DNA-PK substrate | None of these peptides significantly inhibited the phosphorylation | –
8 | – | EPPLAQETFSDLWKK [SEQ ID NO: 22] | not phosphorylated efficiently by DNA-PK | – | –
9 | 0 pmol/min/μg of DNA-PK | His Lys Lys Leu Met Phe Lys Thr Glu Gly Pro Asp Ser Asp (HKKLMFKTEGPDSD; Human p53 residues 380-393; listed as Homo sapiens) [SEQ ID NO: 31] | phosphorylated at a negligible rate; also recorded: not substrates for DNA-PK | None of these peptides significantly inhibited the phosphorylation | –
10 | 0 pmol/min/μg of DNA-PK | Ser Lys Lys Gly Gln Ser Thr Ser Arg His Lys Lys Leu Met Phe (SKKGQSTSRHKKLMF; Human p53 residues 371-385; listed as Homo sapiens) [SEQ ID NO: 30] | phosphorylated at a negligible rate | – | –
11 | – | OCC(O)CO [Glycerol] | – | – | effect on DNA-PK activity (in words) (DNA-PK [3]): inhibited; 50% Inhibition (DNA-PK [3]): 25 % v/v
12 | 15 pmol/min/μg of DNA-PK | EPPLSQETFKK [SEQ ID NO: 9] | – | None of these peptides significantly inhibited the phosphorylation | rate of phosphorylation relative to control (SEQ ID NO: 8) (DNA-PK [1]): approximately 10%
13 | 5.3 pmol/min/μg of DNA-PK | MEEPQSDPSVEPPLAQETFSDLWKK [SEQ ID NO: 5] | ineffective substrate for DNA-PK | None of these peptides significantly inhibited the phosphorylation | rate of phosphorylation relative to (SEQ ID NO: 4) (DNA-PK [1]; at 200 μM): about 10%
14 | – | CC(C)C[C@H](NC(=O)[C@H](CC(=O)O)NC(=O)[C@H](C)NC(=O)[C@H](Cc1ccccc1)NC(=O)[C@H](C)NC(=O)[C@H](CCC(=O)O)NC(=O)[C@H](CCC(N)=O)NC(=O)[C@H](CO)NC(=O)[C@H](CC(C)C)NC(=O)[C@@H]1CCCN1C(=O)[C@@H]1CCCN1C(=O)[C@@H](N)CCC(=O)O)C(=O)N[C@@H](Cc1c[nH]c2ccccc12)C(=O)N[C@@H](CCCCN)C(=O)N[C@@H](CCCCN)C(=O)O [SEQ ID NO: 11] (H-EPPLSQEAFADLWKK-OH) | – | – | Km relative to (SEQ ID NO: 8) (DNA-PK [1]): twofold increase
15 | 2.3 pmol/min/μg of DNA-PK | EPPLSYEAFADLLKK [SEQ ID NO: 34] | – | – | –
16 | 48 pmol/min/μg of DNA-PK | EPPDSQEAFADLWKK [SEQ ID NO: 17] | less effective substrate for DNA-PK than peptides (SEQ ID NOS: 15 AND 16) | – | –
17 | – | CSCC[C@H](NC(=O)[C@H](C)NC(=O)[C@H](CCC(N)=O)NC(=O)[C@H](CO)NC(=O)[C@@H]1CCCN1C(=O)[C@H](CC(C)C)NC(=O)[C@@H]1CCCN1C(=O)[C@H](CO)NC(=O)[C@H](CC(C)C)NC(=O)[C@@H](NC(=O)[C@H](CC(N)=O)NC(=O)[C@@H](N)CC(N)=O)C(C)C)C(=O)N[C@@H](CC(=O)O)C(=O)N[C@@H](CC(=O)O)C(=O)N[C@@H](CC(C)C)C(=O)N[C@@H](CCSC)C(=O)N[C@@H](CCCCN)C(=O)N[C@@H](CCCCN)C(=O)O [SEQ ID NO: 6] | – | – | Km relative to (SEQ ID NO: 4) (DNA-PK [1]): twice as high
18 | – | Phosphate | – | – | effect on DNA-PK activity (in words) (DNA-PK [3]): inhibited; IC50 (DNA-PK [3]): 10 mM
19 | – | O=P(O)(O)OP(=O)(O)O [Pyrophosphate] | – | – | effect on DNA-PK activity (in words) (DNA-PK [3]): inhibited; IC50 (DNA-PK [3]): 3 mM
